Results taken from US20170189510A1.

These binders were tested against HLA-A*24 (human) (assay: UV-ligand exchange, anti-b2m ELISA).

| peptide exchange yield | Binder |
| --- | --- |
| 50 to 75% | EYINQGDLHEF [peptide SEQ ID No 275 …] |
| > 75% | KFVDSTFYL [peptide SEQ ID No 282 …] |
| > 75% | RYPDNLKHLYL [peptide SEQ ID No 280 …] |
| > 75% | KYPVEWAKF [peptide SEQ ID No 289 …] |
| 50 to 75% | LYITEPKTI [peptide SEQ ID No 287 …] |
| 50 to 75% | TYIKPISKL [peptide SEQ ID No 273 …] |
| 50 to 75% | RYLNKAFHI [peptide SEQ ID No 284 …] |
| > 75% | QYLQDAYSF [peptide SEQ ID No 272 …] |
| 50 to 75% | VYVSDIQEL [peptide SEQ ID No 288 …] |
| > 75% | RYISDQLFTNF [peptide SEQ ID No 278 …] |
| > 75% | LYHDIFSRL [peptide SEQ ID No 271 …] |
| 20 to 49% | PYRLIFEKF [peptide SEQ ID No 281 …] |
| 20 to 49% | RYPDNLKHL [peptide SEQ ID No 286 …] |
| 50 to 75% | TYIESASEL [peptide SEQ ID No 279 …] |
| 50 to 75% | HYPPVQVLF [peptide SEQ ID No 285 …] |
| > 75% | VYGFQWRHF [peptide SEQ ID No 276 …] |
| > 75% | VYQGHTALL [peptide SEQ ID No 277 …] |
| > 75% | AYLHSHALI [peptide SEQ ID No 274 …] |
| 50 to 75% | TYGDAGLTYTF [peptide SEQ ID No 283 …] |

Continued, binder first:

| Binder | peptide exchange yield |
| --- | --- |
| IYLVSIPEL [peptide SEQ ID No 161 …] | > 75% |
| KYMVYPQTF [peptide SEQ ID No 267 …] | > 75% |
| KFSSFSLFF [peptide SEQ ID No 164 …] | 50 to 75% |
| EYSLFPGQVVI [peptide SEQ ID No 197 …] | 50 to 75% |
| HYSQELSLLYL [peptide SEQ ID No 158 …] | > 75% |
| NYYEVHKELF [peptide SEQ ID No 270 …] | 50 to 75% |
| KYTSWYVAL [peptide SEQ ID No 228 …] | > 75% |
| YYVESGKLF [peptide SEQ ID No 166 …] | > 75% |
| TYELRYFQI [peptide SEQ ID No 204 …] | > 75% |
| YFIDSTNLKTHF [peptide SEQ ID No 269 …] | 50 to 75% |
| YYVYIMNHL [peptide SEQ ID No 225 …] | 50 to 75% |
| IYSWILDHF [peptide SEQ ID No 173 …] | > 75% |
| VFTRVSSFL [peptide SEQ ID No 162 …] | 50 to 75% |
| NYINRILKL [peptide SEQ ID No 167 …] | > 75% |
| VYVGGGQIIHL [peptide SEQ ID No 174 …] | 50 to 75% |
| AYVVFVSTL [peptide SEQ ID No 207 …] | 20 to 49% |
| KYIPYKYVI [peptide SEQ ID No 223 …] | 50 to 75% |
| AYTLIAPNI [peptide SEQ ID No 169 …] | 50 to 75% |
| LYNKGFIYL [peptide SEQ ID No 159 …] | > 75% |
| TFSVSSHLF [peptide SEQ ID No 222 …] | 50 to 75% |
| VYEDQVGKF [peptide SEQ ID No 170 …] | 20 to 49% |

| Binder | peptide exchange yield |
| --- | --- |
| LFIPSSKLLFL [peptide SEQ ID No 171 …] | 50 to 75% |
| EYPLVINTL [peptide SEQ ID No 219 …] | 50 to 75% |
| IFLDYEAGTLSF [peptide SEQ ID No 227 …] | > 75% |
| TYSVSFPMF [peptide SEQ ID No 195 …] | > 75% |
| RYAEEVGIF [peptide SEQ ID No 199 …] | 50 to 75% |
| QYLGQIQHI [peptide SEQ ID No 268 …] | 50 to 75% |
| EYNQWFTKL [peptide SEQ ID No 176 …] | 50 to 75% |
| QYLENLEKL [peptide SEQ ID No 224 …] | 50 to 75% |
| KYQDILETI [peptide SEQ ID No 168 …] | > 75% |
| VYRDETGELF [peptide SEQ ID No 226 …] | 50 to 75% |
| DYTTWTALL [peptide SEQ ID No 165 …] | > 75% |
| VYTLDIPVL [peptide SEQ ID No 160 …] | > 75% |
| YYGPSLFLL [peptide SEQ ID No 200 …] | 50 to 75% |
| TYKDEGNDYF [peptide SEQ ID No 209 …] | 50 to 75% |
| YYKSTSSAF [peptide SEQ ID No 218 …] | 50 to 75% |
| IYATEAHVF [peptide SEQ ID No 201 …] | 50 to 75% |
| RYSTGLAGNLL [peptide SEQ ID No 221 …] | 50 to 75% |
| YYEVHKELF [peptide SEQ ID No 175 …] | > 75% |
| LYIDRPLPYL [peptide SEQ ID No 196 …] | 50 to 75% |
| VYWDSAGAAHF [peptide SEQ ID No 202 …] | > 75% |
| DYLKGLASF [peptide SEQ ID No 163 …] | > 75% |
